The target of the assay is protein phosphatase-1 alpha catalytic subunit (recombinant PP1α) (UniProt P62139).
Sequence of UniProt P62139 (P62139 whole entry): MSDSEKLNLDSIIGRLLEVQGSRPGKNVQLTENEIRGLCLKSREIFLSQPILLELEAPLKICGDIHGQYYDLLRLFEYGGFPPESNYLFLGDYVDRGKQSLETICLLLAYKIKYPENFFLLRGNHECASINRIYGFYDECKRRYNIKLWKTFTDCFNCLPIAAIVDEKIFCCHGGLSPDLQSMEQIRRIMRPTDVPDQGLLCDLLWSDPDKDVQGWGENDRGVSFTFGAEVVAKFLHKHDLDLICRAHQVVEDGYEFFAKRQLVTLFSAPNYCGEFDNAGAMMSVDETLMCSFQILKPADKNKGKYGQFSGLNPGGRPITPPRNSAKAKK

With MAEAGAGLSETVTETTVTVTTEPENRSLTIKLRKRKPEKKVEWTSDT (domain or fragment) [Inh3(1–47)], the fold increase in IC50 of inhibition of PP1 activity, against Inh3(1–64) is 3.5 fold.

These data come from PMC2613339.
